Here are results for 20 molecules from US11653679B2, “High-purity steviol glycosides” (PureCircle Sdn Bhd, priority 2014, dated 2023).

Changes are numbered by the printed parent chain.

First the molecules themselves.
B1: UGT76G1var55: UGT76G1 variant, mutations I295M_Q342E_V366I_N409R (protein, UniProt Q6VAB4 1-458, looked up, variant I295M Q342E V366I N409R)
UDP-glycosyltransferase 76G1: MENKTETTVRRRRRIILFPVPFQGHINPILQLANVLYSKGFSITIFHTNFNKPKTSNYPHFTFRFILDNDPQDERISNLPTHGPLAGMRIPIINEHGADELRRELELLMLASEEDEEVSCLITDALWYFAQSVADSLNLRRLVLMTSSLFNFHAHVSLPQFDELGYLDPDDKTRLEEQASGFPMLKVKDIKSAYSNWQILKEILGKMIKQTKASSGVIWNSFKELEESELETVIREIPAPSFLIPLPKHLTASSSSLLDHDRTVFQWLDQQPPSSVLYVSFGSTSEVDEKDFLEMARGLVDSKQSFLWVVRPGFVKGSTWVEPLPDGFLGERGRIVKWVPQEEVLAHGAIGAFWTHSGWNSTLESICEGVPMIFSDFGLDQPLNARYMSDVLKVGVYLENGWERGEIARAIRRVMVDEEGEYIRQNARVLKQKADVSLMKGGSSYESLESLVSYISSL
B2: UGT76G1var66: UGT76G1 variant, mutations F265L_V310I_V366I_A385T (protein, UniProt Q6VAB4 1-458, looked up, variant F265L V310I V366I A385T)
UDP-glycosyltransferase 76G1: B1 UDP-glycosyltransferase 76G1 with F265L, M295I, V310I, E342Q, A385T, R409N
B3: UGT76G1var72: UGT76G1 variant, mutations T284L_D301N_K303G_S375R (protein, UniProt Q6VAB4 1-458, looked up, variant T284L D301N K303G S375R)
UDP-glycosyltransferase 76G1: B1 UDP-glycosyltransferase 76G1 with T284L, M295I, D301N, K303G, E342Q, I366V, S375R, R409N
B4: UGT76G1var58: UGT76G1 variant, mutations S357C_S375M_N409R_Q425E (protein, UniProt Q6VAB4 1-458, looked up, variant S357C S375M N409R Q425E)
UDP-glycosyltransferase 76G1: B1 UDP-glycosyltransferase 76G1 with M295I, E342Q, S357C, I366V, S375M, Q425E
B5: UGT76G1var59: UGT76G1 variant, mutations I335V_K393G_V394I_Y397Q (protein, UniProt Q6VAB4 1-458, looked up, variant I335V K393G V394I Y397Q)
UDP-glycosyltransferase 76G1: B1 UDP-glycosyltransferase 76G1 with M295I, I335V, E342Q, I366V, K393G, V394I, Y397Q, R409N
B6: UGT76G1var68: UGT76G1 variant, mutations Q342K_G348P_I373L_Y397E (protein, UniProt Q6VAB4 1-458, looked up, variant Q342K G348P I373L Y397E)
UDP-glycosyltransferase 76G1: B1 UDP-glycosyltransferase 76G1 with M295I, E342K, G348P, I366V, I373L, Y397E, R409N
B7: UGT76G1var2: UGT76G1 variant, mutations S274G_T284I_L379G (protein, UniProt Q6VAB4 1-458, looked up, variant S274G T284I L379G)
UDP-glycosyltransferase 76G1: B1 UDP-glycosyltransferase 76G1 with S274G, T284I, M295I, E342Q, I366V, L379G, R409N
B8: UGT76G1var63: UGT76G1 variant, mutations F314S_R334H_Q342K_L379G (protein, UniProt Q6VAB4 1-458, looked up, variant F314S R334H Q342K L379G)
UDP-glycosyltransferase 76G1: B1 UDP-glycosyltransferase 76G1 with M295I, F314S, R334H, E342K, I366V, L379G, R409N
B9: UGT76G1var57: UGT76G1 variant, mutations S241I_T263S_L379G_A385T (protein, UniProt Q6VAB4 1-458, looked up, variant S241I T263S L379G A385T)
UDP-glycosyltransferase 76G1: B1 UDP-glycosyltransferase 76G1 with S241I, T263S, M295I, E342Q, I366V, L379G, A385T, R409N
B10: UGT76G1var70: UGT76G1 variant, mutations E224A_I295T_V300A_G348P (protein, UniProt Q6VAB4 1-458, looked up, variant E224A I295T V300A G348P)
UDP-glycosyltransferase 76G1: B1 UDP-glycosyltransferase 76G1 with E224A, M295T, V300A, E342Q, G348P, I366V, R409N
B11: UGT76G1var69: UGT76G1 variant, mutations S274G_I295T_I335V_L379A (protein, UniProt Q6VAB4 1-458, looked up, variant S274G I295T I335V L379A)
UDP-glycosyltransferase 76G1: B1 UDP-glycosyltransferase 76G1 with S274G, M295T, I335V, E342Q, I366V, L379A, R409N
B12: UGT76G1var64: UGT76G1 variant, mutations F22L_A239I_R334H_I407V (protein, UniProt Q6VAB4 1-458, looked up, variant F22L A239I R334H I407V)
UDP-glycosyltransferase 76G1: B1 UDP-glycosyltransferase 76G1 with F22L, A239I, M295I, R334H, E342Q, I366V, I407V, R409N
B13: UGT76G1var62: UGT76G1 variant, mutations L243P_P272A_V394I_V396F (protein, UniProt Q6VAB4 1-458, looked up, variant L243P P272A V394I V396F)
UDP-glycosyltransferase 76G1: B1 UDP-glycosyltransferase 76G1 with L243P, P272A, M295I, E342Q, I366V, V394I, V396F, R409N
B14: UGT76G1var56: UGT76G1 variant, mutations L246F_A352G_S357N_Q432E (protein, UniProt Q6VAB4 1-458, looked up, variant L246F A352G S357N Q432E)
UDP-glycosyltransferase 76G1: B1 UDP-glycosyltransferase 76G1 with L246F, M295I, E342Q, A352G, S357N, I366V, R409N, Q432E
B15: UGT76G1var67: UGT76G1 variant, mutations E224D_F314S_S375R_Y397E (protein, UniProt Q6VAB4 1-458, looked up, variant E224D F314S S375R Y397E)
UDP-glycosyltransferase 76G1: B1 UDP-glycosyltransferase 76G1 with E224D, M295I, F314S, E342Q, I366V, S375R, Y397E, R409N
B16: UGT76G1var61: UGT76G1 variant, mutations I43V_F265I_Q266S_L379A (protein, UniProt Q6VAB4 1-458, looked up, variant I43V F265I Q266S L379A)
UDP-glycosyltransferase 76G1: B1 UDP-glycosyltransferase 76G1 with I43V, F265I, Q266S, M295I, E342Q, I366V, L379A, R409N
B17: UGT76G1var3: UGT76G1 variant, mutations I295T_S357C_V366I (protein, UniProt Q6VAB4 1-458, looked up, variant I295T S357C V366I)
UDP-glycosyltransferase 76G1: B1 UDP-glycosyltransferase 76G1 with M295T, E342Q, S357C, R409N
B18: UGT76G1var65: UGT76G1 variant, mutations A33G_A239V_P382M_Q425E (protein, UniProt Q6VAB4 1-458, looked up, variant A33G A239V P382M Q425E)
UDP-glycosyltransferase 76G1: B1 UDP-glycosyltransferase 76G1 with A33G, A239V, M295I, E342Q, I366V, P382M, R409N, Q425E
B19: UGT76G1var71: UGT76G1 variant, mutations I295M_V300A_K393G_Q432E (protein, UniProt Q6VAB4 1-458, looked up, variant I295M V300A K393G Q432E)
UDP-glycosyltransferase 76G1: B1 UDP-glycosyltransferase 76G1 with V300A, E342Q, I366V, K393G, R409N, Q432E
B20: UGT76G1var60: UGT76G1 variant, mutations E231A_L243A_V279I_S357N (protein, UniProt Q6VAB4 1-458, looked up, variant E231A L243A V279I S357N)
UDP-glycosyltransferase 76G1: B1 UDP-glycosyltransferase 76G1 with E231A, L243A, V279I, M295I, E342Q, S357N, I366V, R409N

The nature of the series: Directed evolution of UGT76G1, Rebaudioside D to Rebaudioside M, round 1 (Example 26). Format: biochemical. Particulars: 100 μL fresh lysate, 0.5 mM Rebaudioside D, 30° C., pH 7.2. As to the method: Lysis was performed by addition of Bugbuster® Master mix (Novagen®) to the thawed cells and the lysate was recovered by centrifugation. Activity tests were performed with 100 μL of fresh lysate that was added to a solution of Rebaudioside D (final concentration 0.5 mM), MgCl2 (final concentration 3 mM) and UDP-Glucose (final concentration 2.5 mM) in 50 mM phosphate buffer pH 7.2.
The reaction was allowed to run at 30° C. and samples were taken after 2, 4, 7 and 24 h. to determine conversion and initial rate by HPLC (CAD detection) using the analytical method that was described above for the transformation of Rebaudioside D to Rebaudioside M. The results are depicted in the following table.
For the molecule B1, the “conversion Reb D to Reb M after 24 h” value is listed as 1.0% and the initial rate came to 2.2E+05 Reb M area/min.

With B2, the “conversion Reb D to Reb M after 24 h” value amounted to 0.8% and the initial rate stood at 3.7E+05 Reb M area/min. Molecule B3 showed an initial rate of 9.1E+06 Reb M area/min.

On to B4, for which the “conversion Reb D to Reb M after 24 h” value is 7.5% and the initial rate turned out to be 2.2E+06 Reb M area/min.

Regarding B5, the “conversion Reb D to Reb M after 24 h” value was 33.0% and the initial rate came out at 2.7E+07 Reb M area/min. Take B6: the “conversion Reb D to Reb M after 24 h” value was −1.4% and the initial rate is recorded as −1.1E+05 Reb M area/min. B7 displayed an initial rate of 4.7E+07 Reb M area/min. Regarding B8, the “conversion Reb D to Reb M after 24 h” value came out at 3.4% and the initial rate is given as 1.2E+06 Reb M area/min. In the same order, the values of B9 are 0.8% and 1.5E+05 Reb M area/min.

Regarding B10, the “conversion Reb D to Reb M after 24 h” value stood at 24.0% and the initial rate is 8.4E+06 Reb M area/min. For B11, the initial rate is on record as 8.3E+06 Reb M area/min. Take B12: the “conversion Reb D to Reb M after 24 h” value is on record as 0.3% and the initial rate is reported as 3.1E+04 Reb M area/min. For B13, the “conversion Reb D to Reb M after 24 h” value stood at 0.1% and the initial rate was 3.4E+04 Reb M area/min. In the case of B14, the “conversion Reb D to Reb M after 24 h” value was determined as 0.4% and the initial rate is reported as 4.1E+04 Reb M area/min. The like results for B15 were, in that order, −2.1% and −5.6E+05 Reb M area/min.

Take B16: the “conversion Reb D to Reb M after 24 h” value was determined as 6.4% and the initial rate was 2.0E+06 Reb M area/min.

Regarding B17, the “conversion Reb D to Reb M after 24 h” value is listed as 9.6% and the initial rate is 1.6E+06 Reb M area/min. The like results for B18 were, in that order, 1.2% and 3.3E+05 Reb M area/min.

For B19, the initial rate worked out at 2.1E+07 Reb M area/min. For the molecule B20, the “conversion Reb D to Reb M after 24 h” value came out at 0.5% and the initial rate was 9.5E+04 Reb M area/min.
